These are literature values, as cited in US20160136246A1, “Novel Uses of GLP-1 Receptor Agonists in Patients Treated with Insulin and/or Suffering from Type 1 Diabetes” (NOVO NORDISK A/S, priority 2013, published 2016).

For the data set the following is noted: in humans; cited from earlier work.

As to “GLP-1: glucagon-like peptide-1, a product of proglucagon, gut hormone”, the plasma half-life is 2 min.
